# Positions count from the first letter of the chain named.
# B1: TF-mAb-H30 (antibody, V domains shown)
# VH: EVQLVQSGAEVKKPGESLKISCKGSGYSFTSYWMNWVRQMPGKGLEWMGMIYPADSETRLNQKFKDKATLSVDKSISTAYLQWSSLKASDTAMYYCAREDYGSSDYWGQGTTVTVSS
# VL: EIVLTQSPATLSLSPGERATLSCSASSSVSYMNWYQQKPGQAPRIWIYGISNLASGIPARFSGSGSGTDFTLTISSLEPEDFAVYYCQQKSSFPWTFGGGTKVEIK
# notes: Humanized
# B2: TF-mAb-H32 (antibody, V domains shown)
# VH: QVQLVQSGAEVKKPGASVKVSCKASGYSFISYWMNWVRQAPGQGLEWIGMIYPADSETRLNQKFKDRATLTVDKSTSTAYMELSSLRSEDTAVYYCAREDYGSSDYWGQGTTVTVSS
# VL: B1 VL
# notes: Humanized
# B3: TF-mAb-H40 (antibody, V domains shown)
# VH: B1 VH
# VL: DIQLTQSPSSLSASVGDRVTITCSASSSVSYMNWYQQKPGKSPKIWIYGISNLASGVPSRFSGSGSGTDFTLTISSLQPEDFATYYCQQKSSFPWTFGGGTKVEIK
# notes: Humanized
# B4: TF-mAb-H45 (antibody, V domains shown)
# VH: B1 VH
# VL: EIVLTQSPDFQSVTPKEKVTITCSASSSVSYMNWYQQKPDQSPKIWIYGISNLASGVPSRFSGSGSGTDFTLTINSLEAEDAATYYCQQKSSFPWTFGGGTKVEIK
# notes: Humanized
# B5: TF-mAb-H38 (antibody, V domains shown)
# VH: QVQLVQSGSELKKPGASVKVSCKASGYSFISYWMNWVRQAPGQGLEWIGMIYPADSETRLNQKFKDRAVLSVDKSVSTAYLQICSLKAEDTAVYYCAREDYGSSDYWGQGTTVTVSS
# VL: B1 VL with A42S, I57V
# notes: Humanized
# B6: TF-mAb-H44 (antibody, V domains shown)
# VH: B1 VH with K67Q
# VL: B4 VL
# notes: Humanized; also called humanized antibody TF-mAb-H44
# B7: TF-mAb-H34 (antibody, V domains shown)
# VH: B1 VH with K67Q
# VL: B1 VL with A42S, I57V
# notes: Humanized
# B8: TF-mAb-H36 (antibody, V domains shown)
# VH: B1 VH with R38K
# VL: B1 VL with A42S, I57V
# notes: Humanized
# B9: TF-mAb-H35 (antibody, V domains shown)
# VH: B1 VH
# VL: B1 VL with A42S, I57V
# notes: Humanized
# B10: TF-mAb-H31 (antibody, V domains shown)
# VH: B1 VH with R38K
# VL: B1 VL
# notes: Humanized
# B11: TF-mAb-H29 (antibody, V domains shown)
# VH: B1 VH with K67Q
# VL: B1 VL
# notes: Humanized
# B12: TF-mAb-H39 (antibody, V domains shown)
# VH: B1 VH with K67Q
# VL: B3 VL
# notes: Humanized; also called humanized antibody TF-mAb-H39
# B13: TF-mAb-H33 (antibody, V domains shown)
# VH: B5 VH
# VL: B1 VL
# notes: Humanized
# B14: TF-mAb-H37 (antibody, V domains shown)
# VH: B2 VH
# VL: B1 VL with A42S, I57V
# notes: Humanized
# B15: TF-mAb-H41 (antibody, V domains shown)
# VH: B1 VH with R38K
# VL: B3 VL
# notes: Humanized
# B16: TF-mAb-H46 (antibody, V domains shown)
# VH: B1 VH with R38K
# VL: B4 VL
# notes: Humanized
# B17: TF-mAb-H42 (antibody, V domains shown)
# VH: B2 VH
# VL: B3 VL
# notes: Humanized
# B18: TF-mAb-H47 (antibody, V domains shown)
# VH: B2 VH
# VL: B4 VL
# notes: Humanized
# B19: TF-mAb-H48 (antibody, V domains shown)
# VH: B5 VH
# VL: B4 VL
# notes: Humanized
# B20: TF-mAb-H43 (antibody, V domains shown)
# VH: B5 VH
# VL: B3 VL
# notes: Humanized
# Molecular target: T1, extracellular domain of human TF protein (human, UniProt P13726 34-251)
# T1 construct: range 34-251; Limits 34-251 are stated for the immunogen; also called the extracellular domain protein of TF; TF antigen
# Experiment: ELISA, coated TF extracellular domain
# Description: The antigen (the extracellular domain protein of TF) was diluted to 0.5 μg/mL with a coating solution, and was used to coat an ELISA plate overnight, at 100 μL/well and 4° C. The excessive antigen was removed by washing. The plate was blocked with 2% BSA at room temperature for 2 h, and then each of the 3-fold serial diluted monoclonal antibodies was added at 100 μL/well, and was incubated for 2 h at room temperature. The unbound antibodies were removed by washing, and an appropriate concentration of horseradish peroxidase-labeled anti-mouse secondary antibody was added at 100 μL/well, and incubated for 1 h at room temperature. The unbound secondary antibody was removed by washing, TMB chromogenic solution was added, and the color was developed to an appropriate color depth. 2M H₂SO₄ was added at 50 μL/well, to stop the chromogenic reaction, the absorbance at 450 nm was then determined, and the data was analyzed.
# Firstly, the 20 humanized antibodies were determined for their affinity for the extracellular domain protein of TF by ELISA binding assay (The experimental method refers to Step \textcircled{4} of Example 1).
row,EC50 [nM],Binder
1,0.0147,B1
2,0.0168,B2
3,0.0131,B3
4,0.0138,B4
5,0.0178,B5
6,0.012,B6
7,0.0154,B7
8,0.0234,B8
9,0.0105,B9
10,0.0145,B10
11,0.0178,B11
12,0.0125,B12
13,0.0189,B13
14,0.0173,B14
15,0.0134,B15
16,0.0119,B16
17,0.0128,B17
18,0.013,B18
19,0.0153,B19
20,0.0116,B20

# Molecular target: T2, human TF on the cell surface of tumor cells (human, UniProt P13726 33-295)
# T2 construct: whole, on cells; Endogenous TF on TF-positive human tumor cell lines; also called cell surface TF
# Experiment: flow cytometry on MDA-MB-231 cells, antibody at 1 µg/mL
# Description: (§1) The cells were washed with PBS twice to remove the unbound primary antibody, and the target cells were incubated with 200 μL PE-labeled secondary antibody (2 μg/mL) at 4° C. for 30 min. The cells were washed with PBS twice to remove the unbound secondary antibody, and finally the cells were re-suspended in 400 μL PBS.
row,MFI,Binder
1,2930,B1
2,2400,B2
3,3180,B3
4,3100,B4
5,2870,B5
6,3200,B6
7,2460,B7
8,3040,B8
9,2930,B9
10,3080,B10
11,2960,B11
12,3180,B12
13,2420,B13
14,2460,B14
15,3000,B15
16,3120,B16
17,2970,B17
18,3000,B18
19,2610,B19
20,2820,B20

# Molecular target: T2, human TF on the cell surface of tumor …
# Experiment: flow cytometry on MDA-MB-231 cells, antibody at 10 µg/mL
# Design: reference not given here
# Description: as §1
row,MFI,Binder
1,3240,B1
2,3010,B2
3,3310,B3
4,3480,B4
5,3150,B5
6,3430,B6
7,3270,B7
8,3090,B8
9,3020,B9
10,3470,B10
11,3580,B11
12,3380,B12
13,2840,B13
14,2990,B14
15,3610,B15
16,3410,B16
17,3350,B17
18,3150,B18
19,2900,B19
20,3300,B20

# Reference: US20190177431A1 (FUDAN UNIVERSITY, published 2019)
